In assay [1] the target is T1, HLA-B44 (HLA-B*4403) (human).
T1 construct: whole, on cells; MHC class I molecule on BAGM-EBV cells or transfected COS-7 cells
Description: concluded from lysis of peptide-pulsed BAGM-EBV cells and TNF assays with HLA-B44 transfectants; no direct binding assay.

For assay [2], the target named is T1, HLA-B44 (HLA-B*4403). Put plainly: lysis of peptide-pulsed BAGM-EBV cells by TIL 2.4. As to the method:
FIG. 4 depicts the lysis of BAGM-EBV cells pulsed with the MAGE.C2.B44 peptides. […] TIL2.4 was added at a ratio of 15:1. The chromium release was measured after 4 hours. The nonapeptide (-▪-) is the antigenic sequence recognized by the TIL.
To identify the antigenic peptide, several minigenes were generated by amplifying different fragments of the MAGE-C2 cDNA by PCR. The PCR products were cloned into plasmid vector pCDNA3.1/His by TOPO T/A cloning (MAGE-C2/HLA-A2 patent and Ma W et al., Int. J. Cancer: in press, incorporated herein by reference). COS-7 cells were transfected with vectors encoding HLA-B44 and vectors encoding the different minigenes described above. TIL 2.4 were added to the transfected cells and TNF production was measured (FIG. 3X). […] Candidate peptides bearing the binding motif for HLA-B44 were then synthesized and pulsed onto BAGM-EBV cells. These pulsed cells were combined with TIL2.4 and assayed for lysis. […] The nonapeptide and the decapeptide were then synthesized and assayed individually.

B1: MAGE-C2 nonapeptide SESIKKKVL (SEQ ID NO: 107) (peptide)
peptide: SESIKKKVL
notes: Synthetic peptide; also called MAGE.C2 antigenic peptide
B1: the binding result in assay [1] is “binds”.
SESIKKKVLEF (Synthetic peptide) [MAGE-C2 11-mer peptide SESIKKKVLEF (SEQ ID NO: 106)]: the binding result in assay [2] is reported as “binds”.

Source of the values: US20050255553A1 (LUDWIG INSTITUTE FOR CANCER RESEARCH, published 2005).
